According to patent US20260035456A1:

Target: CRLR/RAMP3 (human)

Substance: hADM(22-52) (from UniProt P35318) (peptide)
- IC50 (read off the curve): 100 µg/mL
